{"source": "patent US6800606B1", "about": "“Monomeric analogues of human insulin” (Shanghai Institute of Biochemistry, priority 1999, dated 2004)", "assay": "Determination of structural forms by Superdex G-75 column elution", "type": "physicochemical", "conditions": "for Peak profile / Retention Time: Superdex G-75 column (HR 10/30), phosphate buffered saline pH 7.4, flow rate 0.4 ml/min, sample 1.2 mg/ml; for Structural form (monomeric or polymeric): concluded from retention time and peak profile versus positive control [B28Lys, B29Pro] human insulin", "method": "[…] A preparation of each analogue is passed through Superdex G-75 column (HR 10/30). HI and [B28Lys, B29Pro] insulin (Lispro) are used as negative and positive controls respectively. Phosphate buffered saline pH 7.4 is used as an elution buffer and the flow rate fixed at 0.4 ml/min. The concentration of the sample preparation is 1.2 mg/ml."}
{"substance": "Hl: human insulin, used as negative control [reference compound]", "values": [{"measurement": "Peak profile", "result": "Unsymmetrical"}, {"measurement": "Retention Time", "result": 36.4, "unit": "min"}]}
{"substance": "[B12Thr]Hl: insulin analogue in which the 12th amino acid of the B-chain of human insulin (Val) is substituted by Thr", "values": [{"measurement": "Peak profile", "result": "Symmetrical"}, {"measurement": "Retention Time", "result": 39.4, "unit": "min"}, {"measurement": "Structural form (monomeric or polymeric)", "result": "monomeric"}]}
{"substance": "[B16Ala]Hl: human insulin analogue with replacement of Tyr by Ala in position B16", "values": [{"measurement": "Peak profile", "result": "Symmetrical"}, {"measurement": "Retention Time", "result": 38.3, "unit": "min"}, {"measurement": "Structural form (monomeric or polymeric)", "result": "monomeric"}]}
{"substance": "[B26Ala]Hl: human insulin analogue with replacement of Tyr by Ala in position B26", "values": [{"measurement": "Peak profile", "result": "Symmetrical"}, {"measurement": "Retention Time", "result": 38.9, "unit": "min"}, {"measurement": "Structural form (monomeric or polymeric)", "result": "monomeric"}]}
{"substance": "[B28Lys, B29Pro]Hl: commercial monomeric insulin with inversion of amino acids 28 and 29 of the B chain of human insulin; positive control [reference compound]", "values": [{"measurement": "Peak profile", "result": "Symmetrical"}, {"measurement": "Retention Time", "result": 39.4, "unit": "min"}]}
